Data: paper PMC8897147 (Acta Pharmaceutica Sinica. B, 2021)

T1: SV1 (Homo sapiens, UniProt Q02643)
T1 sequence (Q02643 90-423 limits assumed): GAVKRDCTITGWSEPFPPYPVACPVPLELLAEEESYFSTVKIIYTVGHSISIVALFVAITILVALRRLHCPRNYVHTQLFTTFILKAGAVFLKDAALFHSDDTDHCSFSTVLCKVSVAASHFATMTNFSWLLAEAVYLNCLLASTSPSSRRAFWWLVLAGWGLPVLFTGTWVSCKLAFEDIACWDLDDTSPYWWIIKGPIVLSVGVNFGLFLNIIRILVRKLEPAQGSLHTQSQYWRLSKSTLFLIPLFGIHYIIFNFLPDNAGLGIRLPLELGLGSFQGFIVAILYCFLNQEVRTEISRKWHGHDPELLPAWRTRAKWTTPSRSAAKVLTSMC

T2: GHRHR (Homo sapiens, UniProt Q02643)
T2 sequence (Q02643 23-423): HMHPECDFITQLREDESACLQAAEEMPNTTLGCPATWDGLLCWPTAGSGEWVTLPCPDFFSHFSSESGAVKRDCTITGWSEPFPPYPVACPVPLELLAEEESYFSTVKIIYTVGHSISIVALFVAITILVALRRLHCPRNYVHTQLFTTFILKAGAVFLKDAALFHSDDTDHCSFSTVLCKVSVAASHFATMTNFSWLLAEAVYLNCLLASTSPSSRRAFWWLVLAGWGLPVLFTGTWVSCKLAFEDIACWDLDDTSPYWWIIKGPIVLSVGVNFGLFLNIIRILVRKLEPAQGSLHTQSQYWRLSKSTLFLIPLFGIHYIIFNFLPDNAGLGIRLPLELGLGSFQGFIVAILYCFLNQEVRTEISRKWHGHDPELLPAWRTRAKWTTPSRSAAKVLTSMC

T3: GLP-2R (Homo sapiens, UniProt O95838)
T3 sequence (O95838 1-553): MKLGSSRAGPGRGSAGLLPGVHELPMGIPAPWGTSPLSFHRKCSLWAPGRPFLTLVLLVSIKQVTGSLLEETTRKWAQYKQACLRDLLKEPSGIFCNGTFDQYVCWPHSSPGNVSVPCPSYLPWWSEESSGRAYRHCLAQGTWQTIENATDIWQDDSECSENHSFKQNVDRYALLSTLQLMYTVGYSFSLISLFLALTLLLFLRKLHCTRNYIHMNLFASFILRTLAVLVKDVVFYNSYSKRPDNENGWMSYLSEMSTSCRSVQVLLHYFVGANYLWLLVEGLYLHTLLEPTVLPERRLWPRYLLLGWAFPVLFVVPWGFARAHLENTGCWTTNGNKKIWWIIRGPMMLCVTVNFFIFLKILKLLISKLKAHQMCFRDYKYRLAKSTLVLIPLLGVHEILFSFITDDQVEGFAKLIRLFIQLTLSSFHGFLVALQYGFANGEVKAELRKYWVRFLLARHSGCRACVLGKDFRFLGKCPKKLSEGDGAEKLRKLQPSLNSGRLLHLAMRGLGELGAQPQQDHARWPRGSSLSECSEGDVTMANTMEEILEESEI

T4: GIPR (Homo sapiens, UniProt P48546)
T4 sequence (P48546 22-466): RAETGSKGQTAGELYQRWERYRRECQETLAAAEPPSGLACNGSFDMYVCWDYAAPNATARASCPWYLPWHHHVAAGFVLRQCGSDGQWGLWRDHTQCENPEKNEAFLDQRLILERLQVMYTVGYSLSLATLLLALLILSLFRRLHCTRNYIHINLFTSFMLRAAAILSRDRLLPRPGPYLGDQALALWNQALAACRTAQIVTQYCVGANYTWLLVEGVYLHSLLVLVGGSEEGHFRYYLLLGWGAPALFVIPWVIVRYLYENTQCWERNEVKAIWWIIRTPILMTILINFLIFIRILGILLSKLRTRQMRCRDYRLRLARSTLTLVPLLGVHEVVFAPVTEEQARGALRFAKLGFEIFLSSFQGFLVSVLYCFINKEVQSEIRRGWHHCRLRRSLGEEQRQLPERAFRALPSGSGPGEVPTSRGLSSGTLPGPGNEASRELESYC


Experiments:
GCGR [1] = molecular target: T5, GCGR (Homo sapiens, UniProt P47871); experiment: BRET GPCR–RAMP interaction; assay type: binding; conditions: COS-7; receptor-Rluc8:RAMP-Ypet 1:0.25 to 1:16; pH 7.4, 37 °C; mean ± SEM n≥3
T5 sequence (P47871 26-477, species assumed): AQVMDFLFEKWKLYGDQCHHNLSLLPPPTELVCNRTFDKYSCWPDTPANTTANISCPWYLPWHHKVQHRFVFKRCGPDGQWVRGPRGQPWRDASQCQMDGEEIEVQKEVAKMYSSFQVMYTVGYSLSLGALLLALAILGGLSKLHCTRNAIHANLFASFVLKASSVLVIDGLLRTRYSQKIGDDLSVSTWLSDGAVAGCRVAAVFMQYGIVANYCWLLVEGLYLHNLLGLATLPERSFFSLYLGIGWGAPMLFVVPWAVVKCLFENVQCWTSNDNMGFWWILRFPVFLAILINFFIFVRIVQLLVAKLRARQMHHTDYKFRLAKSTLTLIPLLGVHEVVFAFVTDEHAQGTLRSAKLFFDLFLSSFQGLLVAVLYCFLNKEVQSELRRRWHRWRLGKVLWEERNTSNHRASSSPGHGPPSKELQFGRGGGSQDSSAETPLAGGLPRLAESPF

SV1 [2] = molecular target: T1, SV1; experiment: BRET GPCR–RAMP interaction; assay type: binding; conditions: COS-7; receptor-Rluc8:RAMP-Ypet 1:0.25 to 1:16; pH 7.4, 37 °C; mean ± SEM n≥3
CLR = CLR (Homo sapiens, UniProt Q16602); experiment: BRET GPCR–RAMP interaction; assay type: binding; conditions: COS-7; receptor-Rluc8:RAMP-Ypet 1:0.25 to 1:16; pH 7.4, 37 °C; mean ± SEM n≥3
Chain of CLR (Q16602 23-461): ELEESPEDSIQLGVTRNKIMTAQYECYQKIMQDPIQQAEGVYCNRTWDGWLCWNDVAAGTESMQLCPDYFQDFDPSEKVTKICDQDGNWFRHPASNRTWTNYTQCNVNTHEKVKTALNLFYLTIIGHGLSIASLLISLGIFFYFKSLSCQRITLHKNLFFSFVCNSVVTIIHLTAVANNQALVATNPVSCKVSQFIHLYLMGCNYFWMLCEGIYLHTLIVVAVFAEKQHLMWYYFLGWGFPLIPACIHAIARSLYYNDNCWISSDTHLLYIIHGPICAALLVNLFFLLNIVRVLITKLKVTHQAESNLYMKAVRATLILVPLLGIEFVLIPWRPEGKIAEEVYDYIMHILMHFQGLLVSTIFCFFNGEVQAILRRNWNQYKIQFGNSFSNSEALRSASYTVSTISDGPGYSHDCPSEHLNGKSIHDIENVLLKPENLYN

GHRHR [3] = molecular target: T2, GHRHR; experiment: BRET GPCR–RAMP interaction; assay type: binding; conditions: COS-7; receptor-Rluc8:RAMP-Ypet 1:0.25 to 1:16; pH 7.4, 37 °C; mean ± SEM n≥3
SV1 [4] = molecular target: T1, SV1; experiment: cAMP accumulation; conditions: COS-7; RAMP3
COS-7 cells = experiment: RAMP cell surface expression; assay type: cell-based
GHRHR [5] = molecular target: T2, GHRHR; experiment: cAMP accumulation; conditions: COS-7; RAMP3
GLP-1R = GLP-1R (Homo sapiens, UniProt P43220); experiment: BRET GPCR–RAMP interaction; assay type: binding; conditions: COS-7; receptor-Rluc8:RAMP-Ypet 1:0.25 to 1:16; pH 7.4, 37 °C; mean ± SEM n≥3
Chain of GLP-1R (P43220 24-463): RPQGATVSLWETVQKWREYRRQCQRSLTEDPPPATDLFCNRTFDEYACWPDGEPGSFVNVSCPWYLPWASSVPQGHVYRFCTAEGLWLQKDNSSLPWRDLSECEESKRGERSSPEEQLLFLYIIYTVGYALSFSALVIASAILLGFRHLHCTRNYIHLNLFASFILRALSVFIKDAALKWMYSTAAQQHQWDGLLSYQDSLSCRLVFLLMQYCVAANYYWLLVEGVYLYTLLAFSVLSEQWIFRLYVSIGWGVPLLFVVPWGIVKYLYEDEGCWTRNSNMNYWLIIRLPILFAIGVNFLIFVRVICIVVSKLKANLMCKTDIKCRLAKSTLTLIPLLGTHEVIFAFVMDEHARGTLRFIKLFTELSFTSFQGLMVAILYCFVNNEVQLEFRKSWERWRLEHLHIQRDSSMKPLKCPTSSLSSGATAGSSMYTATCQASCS

SCTR = experiment: BRET GPCR–RAMP interaction; assay type: binding; conditions: COS-7; receptor-Rluc8:RAMP-Ypet 1:0.25 to 1:16; pH 7.4, 37 °C; mean ± SEM n≥3
GLP-2R [6] = molecular target: T3, GLP-2R; experiment: BRET GPCR–RAMP interaction; assay type: binding; conditions: COS-7; receptor-Rluc8:RAMP-Ypet 1:0.25 to 1:16; pH 7.4, 37 °C; mean ± SEM n≥3
GIPR = molecular target: T4, GIPR; experiment: BRET GPCR–RAMP interaction; assay type: binding; conditions: COS-7; receptor-Rluc8:RAMP-Ypet 1:0.25 to 1:16; pH 7.4, 37 °C; mean ± SEM n≥3
GCGR [7] = molecular target: T5, GCGR; conditions: CHO-K1 ref [38]; cited from earlier work
GLP-2R [8] = molecular target: T3, GLP-2R; experiment: Gαq activation; assay type: cell-based; conditions: HEK293A; RAMP2
GCGR [9] = molecular target: T5, GCGR; conditions: CHO-K1 ref [38]; cited from earlier work; remark: listed apart in the source

Molecule	Bmax (maximum measured BRET value) (GCGR [1])	Bmax (maximum measured BRET value) (SV1 [2])	Bmax (maximum measured BRET value) (CLR)	Bmax (maximum measured BRET value) (GHRHR [3])	effect of RAMP on cAMP response (SV1 [4])	RAMP cell surface expression (COS-7 cells; co-expression with GCGR, FLAG-RAMP)	RAMP cell surface expression (COS-7 cells; co-expression with SCTR, FLAG-RAMP, effect of receptor on RAMP3)	RAMP cell surface expression (COS-7 cells; co-expression with SV1, FLAG-RAMP)	effect of RAMP on cAMP response (GHRHR [5])	Bmax (maximum measured BRET value) (GLP-1R)	Bmax (maximum measured BRET value) (SCTR)	Bmax (maximum measured BRET value) (GLP-2R [6])	Bmax (maximum measured BRET value) (GIPR)	β-arrestin recruitment (GCGR [7])	RAMP cell surface expression (COS-7 cells; co-expression with glucagon receptor family members, FLAG-RAMP)	effect of RAMP on potency, Gαq activation (GLP-2R [8])	Gαq signaling (GCGR [9])
receptor activity-modulating protein 3 (protein, left off: Ypet, C-terminal, kept) RAGGCNETGMLERLPLCGKAFADMMGKVDVWKWCNLSEFIVYYESFTNCTEMEANVVGCYWPNPLAQGFITGIHRQFFSNCTVDRVHLEDPPDEVLIPLIVIPVVLTVAMAGLVVWRSKRTDTLL	1.102 ± 0.165	1.842 ± 0.754	0.511 ± 0.058	0.948 ± 0.139	marked response	negative	negative	negative	no effect	0.862 ± 0.100	0.995 ± 0.058	0.689 ± 0.128	0.729 ± 0.061	–	–	–	–
receptor activity-modulating protein 2 (protein, left off: Ypet, C-terminal, kept) QPLPTTGTPGSEGGTVKNYETAVQFCWNHYKDQMDPIEKDWCDWAMISRPYSTLRDCLEHFAELFDLGFPNPLAERIIFETHQIHFANCSLVQPTFSDPPEDVLLAMIIAPICLIPFLITLVVWRSKDSEAQA	0.578 ± 0.072	0.843 ± 0.102	0.468 ± 0.042	0.393 ± 0.025	–	–	–	–	–	0.397 ± 0.092	0.434 ± 0.051	0.567 ± 0.234	0.474 ± 0.122	abolished β-arrestin recruitment	negligible	nominal reduction	attenuated Gαq signaling
